{"source": "paper PMC12965811", "about": "(Nature chemical biology, 2025)", "key": {"[1]": {"target": "full-length human cytoplasmic dynein 1 (wild type) (human) (UniProt Q14204)", "experiment": "cryo-EM structure"}, "[2]": {"target": "full-length human cytoplasmic dynein 1 (wild type) (human) (UniProt Q14204)", "experiment": "mass photometry"}, "[3]": {"target": "T1, Lis1^AAA5 (D192K, Y225A and C226D) (human, UniProt P43034 1-410, D192K | Y225A | C226D)", "T1 sequence (looked up)": "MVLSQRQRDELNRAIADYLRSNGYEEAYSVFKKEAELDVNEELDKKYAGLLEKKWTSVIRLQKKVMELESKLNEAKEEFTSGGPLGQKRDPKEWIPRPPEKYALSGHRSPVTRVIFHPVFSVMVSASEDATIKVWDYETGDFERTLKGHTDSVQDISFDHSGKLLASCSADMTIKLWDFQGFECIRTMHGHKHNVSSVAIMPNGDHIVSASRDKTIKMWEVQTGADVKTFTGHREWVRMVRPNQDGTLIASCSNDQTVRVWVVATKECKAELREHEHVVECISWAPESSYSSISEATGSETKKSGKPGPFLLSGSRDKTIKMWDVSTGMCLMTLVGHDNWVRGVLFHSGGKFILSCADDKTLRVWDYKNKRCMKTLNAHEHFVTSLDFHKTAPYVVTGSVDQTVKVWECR", "experiment": "mass photometry"}, "[4]": {"target": "T2, human Lis1 (wild type) (human, UniProt P43034 1-410)", "T2 sequence": "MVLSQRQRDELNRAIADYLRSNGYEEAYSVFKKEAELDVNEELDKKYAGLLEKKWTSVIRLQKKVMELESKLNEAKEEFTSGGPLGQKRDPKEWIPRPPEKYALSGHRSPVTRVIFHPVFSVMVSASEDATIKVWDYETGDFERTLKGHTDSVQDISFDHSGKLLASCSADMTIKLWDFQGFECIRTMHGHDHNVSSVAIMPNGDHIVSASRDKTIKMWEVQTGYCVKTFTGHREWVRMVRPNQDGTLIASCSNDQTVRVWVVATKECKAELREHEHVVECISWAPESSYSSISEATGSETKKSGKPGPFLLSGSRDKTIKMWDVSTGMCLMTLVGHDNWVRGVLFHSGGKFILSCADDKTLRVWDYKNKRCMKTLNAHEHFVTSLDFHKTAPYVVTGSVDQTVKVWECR", "experiment": "mass photometry"}, "[5]": {"target": "T3, Lis1^All (D192K, D205K, E300A and K303A) (human, UniProt P43034 1-410, D192K | D205K | E300A | K303A)", "T3 sequence (looked up)": "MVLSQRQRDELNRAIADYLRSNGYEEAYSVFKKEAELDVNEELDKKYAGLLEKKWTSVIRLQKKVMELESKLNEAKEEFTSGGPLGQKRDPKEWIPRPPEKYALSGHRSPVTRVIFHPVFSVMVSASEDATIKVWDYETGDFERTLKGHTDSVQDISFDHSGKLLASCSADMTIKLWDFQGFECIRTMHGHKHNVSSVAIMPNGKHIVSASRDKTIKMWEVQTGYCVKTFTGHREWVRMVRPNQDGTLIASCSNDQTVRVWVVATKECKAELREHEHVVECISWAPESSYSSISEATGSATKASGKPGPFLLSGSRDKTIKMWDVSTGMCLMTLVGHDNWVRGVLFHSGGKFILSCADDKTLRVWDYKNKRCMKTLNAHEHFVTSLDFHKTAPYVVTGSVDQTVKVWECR", "experiment": "mass photometry"}, "[6]": {"target": "T4, Lis1^AAA6 (N203K, D205K and Q222A) (human, UniProt P43034 1-410, N203K | D205K | Q222A)", "T4 sequence (looked up)": "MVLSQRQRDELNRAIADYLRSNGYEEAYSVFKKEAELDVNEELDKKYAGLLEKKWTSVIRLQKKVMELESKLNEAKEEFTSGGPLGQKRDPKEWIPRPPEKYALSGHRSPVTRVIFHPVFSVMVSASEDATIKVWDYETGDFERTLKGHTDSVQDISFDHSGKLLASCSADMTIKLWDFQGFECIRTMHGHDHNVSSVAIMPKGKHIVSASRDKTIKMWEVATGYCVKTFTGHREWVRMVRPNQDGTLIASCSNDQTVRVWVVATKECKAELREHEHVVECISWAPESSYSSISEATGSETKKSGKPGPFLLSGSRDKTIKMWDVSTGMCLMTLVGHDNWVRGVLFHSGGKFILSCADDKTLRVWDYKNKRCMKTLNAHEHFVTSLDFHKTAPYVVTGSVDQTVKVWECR", "experiment": "mass photometry"}}}
{"molecule": "human Lis1 (wild type) (from UniProt P43034 1-410) (natural protein)", "values": [{"measurement": "percent of autoinhibited dynein particles in the Phi^L–Lis1 conformation", "setting": "[1]", "result": 57.3, "unit": "%"}, {"measurement": "stoichiometry N (Lis1 dimer per dynein)", "setting": "[1]", "result": 1}, {"measurement": "percent of 1:1 dynein:Lis1 complex (no Nde1, within 60 min)", "setting": "[2]", "result": 37, "unit": "%"}, {"measurement": "percent of complex formation (with Nde1, within a minute)", "setting": "[2]", "result": 69, "unit": "%"}, {"measurement": "stoichiometry N (Lis1 dimer per dynein dimer)", "setting": "[2]", "result": 1}, {"measurement": "stoichiometry N (Lis1 dimer per dynein)", "setting": "[2]", "result": 1}]}
{"molecule": "human Nde1 (N-terminal residues 1–190) (domain or fragment, UniProt Q9NXR1 1-190, looked up) MEDSGKTFSSEEEEANYWKDLAMTYKQRAENTQEELREFQEGSREYEAELETQLQQIETRNRDLLSENNRLRMELETIKEKFEVQHSEGYRQISALEDDLAQTKAIKDQLQKYIRELEQANDDLERAKRATIMSLEDFEQRLNQAIERNAFLESELDEKENLLESVQRLKDEARDLRQELAVQQKQEKPR", "values": [{"measurement": "binding result", "setting": "[3]", "result": "binds"}, {"measurement": "binding result", "setting": "[4]", "result": "binds"}, {"measurement": "binding result", "setting": "[5]", "result": "binds"}, {"measurement": "binding result", "setting": "[6]", "result": "binds"}]}
